# System: MS2 coat protein
# Assay: apparent KD of MS2 coat protein; designed switch direction (-1 OFF switch, 1 ON switch): -1; higher = weaker reporter binding
# Summary of the method: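 The reported apparent KD is a per-design median over clusters, from curve fits of normalised cluster fluorescence. Protein titrations used SNAP-549-labelled MS2 coat protein, doubled from 0.7 or 1.5 nM to 3 µM, in Tris-HCl pH 7.5 buffer with KCl, MgCl2, BSA, DTT, tRNA and Tween-20, with no input, 200 uM small-molecule ligand, or an oligonucleotide input. The RNA switches were transcribed on Illumina chips by stalled E. coli RNA polymerase.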
# [1] = Eterna round: R95, input ligand: microRNA oligo, concentration not stated
# [2] = input ligand: microRNA oligo, concentration not stated
Sequence,apparent KD of MS2 coat protein (input ligand: FMN 200 uM),apparent KD of MS2 coat protein (input ligand: none),also measured
UCGGCGCGAGGAUAUACGUUUGCGCGUUUUCGUUUUUGCGUACAUGAGGAUCACCCAUGUAGAAGGCGCGCCGC [Apr-15 SS2-16] (puzzle: Exclusion 2),–,–,apparent KD of MS2 coat protein [1]: 11.4 nM
"CCCUCAAGCGAGGAUAUAAAUGCGCAUUCGCGGUUAGAAGGCGCUACAUGAGGAUCACCCAUGUAAUUGUAUGG [jl-ex6-4.53 ViennaUCT mod] (Eterna round: R97, puzzle: Exclusion 6)",98.4 nM,73.4 nM,–
"UACAAGCUUUUAAGAUCCCACAUGAGGAUCACCCAUGUGCUCGUCUUGUAACGUACUGUGACGAAAGUCACGGUACG [JL TOV1 3.23] (Eterna round: R97, puzzle: Sensor, turn-off variant 1)",26.7 nM,27.5 nM,–
"AGUACUAACACGCGUGUGUUAGUACAAUAAGCUUGUGAAACAUGAGGAUCACCCAUGUCCUCAUAAGCUCGUCUUAU [salish99_TOv2_r3_076] (puzzle: Sensor v3, turn-off variant 2)",–,–,"apparent KD of MS2 coat protein (Eterna round: R95, input ligand: FMN 200 uM): 15.7 nM; apparent KD of MS2 coat protein [1]: 608 nM; apparent KD of MS2 coat protein (Eterna round: R95, input ligand: none): 13.7 nM"
"GAAUAGGGAGGAUAUCCAAUAUAUGACAUGAGGAUCACCCAUGUUUCCACUCGUACCUCCGGAGAAGGCCCAUAAG [Ex5 #5] (Eterna round: R97, puzzle: Exclusion 5)",22.4 nM,30.6 nM,–
"CUGAGUAGUCAGGAUAUGCUGUACAAAAGUACAGCAGAAGGGACUACAUGAGGAUCACCCAUGUUUACUUCAUG [)mei Ex6 B22] (Eterna round: R97, puzzle: Exclusion 6)",1260 nM,821 nM,–
"GGUCCGAGUGUGAGGAUAUGCUGGUCCUUGGAUCAGCAGAAGGCACAUGAGGAUCACCCAUGUGGUGUCGGACC [Mat - Exclusion 4 - Eli Mod - D32] (Eterna round: R97, puzzle: Brourd's mod of Exclusion 4)",140 nM,932 nM,–
"AAACAGGAAGGAUAUACAUGAGGAUCACCCAUGUAGGAAAACCUACCAAAAGACCCAAGUAGAAGGUCCGAAAA [jl-ex3-4.64 ViennaUCT mod] (Eterna round: R97, puzzle: Exclusion 3)",25.8 nM,15.3 nM,–
"AAGGGUGCUUUCAGAACGACAUGAGGAUCACCCAUGUAGACUGAGGAUAUCUACUCCUAAGGACGGGAGAAGGUAGUGUAAUGC [Ex NG3 #66] (Eterna round: R96, puzzle: Exclusion NG 3)",22.8 nM,26.1 nM,apparent KD of MS2 coat protein [2]: 17.7 nM
"CCGUGCAGGCUGCGGUCCUACAUGAGGAUCACCCAUGUGGUCCGGUGGCGUGGGUCGCCGGACUUGGCUCGUCUUGU [salish99_S_TOV1_R5_016] (Eterna round: R97, puzzle: Sensor, turn-off variant 1)",75.1 nM,86.3 nM,–
"GAGUACAGAGGAUAUACAUGAGGAUCACCCAUGUGUUUCAGCUAGGAGACUAGCGAAAGUAGAAGGCUGUACUU [salish99_ex3_r4_005] (Eterna round: R97, puzzle: Exclusion 3)",25.7 nM,8.49 nM,–
GUGAAACAUGAGGAUCACCCAUGUGAGGAUAUGUUUUAGUACUGCUGACAGUACAUCUAUAGAAGGCACAAUGG [JL-ex1-02] (puzzle: Exclusion 1),–,–,apparent KD of MS2 coat protein [1]: 33.7 nM
"GCACGGAGUGUAGGAUAUCUGUGCGAUUAGCUCAGAGAAGGACACAUGAGGAUCACCCAUGUGUAACUCAACAUUAAUCCGUGC [Eli exng1 - 074] (Eterna round: R96, puzzle: Exclusion NG 1)",9.63 nM,10.6 nM,apparent KD of MS2 coat protein [2]: 7.59 nM
"AGUCGAAAGACCAACAUGGACAUGAGGAUCACCCAUGUACAAGCCUUUUGCUCGUCACUAUCGUCAAAAGACGAUAG [Omei Mir Offv1 A1] (Eterna round: R97, puzzle: Sensor, turn-off variant 1)",34.5 nM,32.8 nM,–
